This note sets out measurements from PMC11629678, “Hypoxia favors tumor growth in colorectal cancer in an integrin αDβ1/hemoglobin δ-dependent manner” (Life Science Alliance, 2024).

This data set deals with the molecule itself. The data set can be described thus: SDS-polyacrylamide gel electrophoresis and blot; recombinant His-tagged Hbδ and Hbβ (HbAo) on a 4-20% SDS gel and blotted; non-reducing conditions in the legend, reducing conditions in the text.

B1: recombinant Hbδ (natural protein)
chain: not shown
notes: hemoglobin subunit delta, recombinant, His-tagged (Origene); No catalogue number is printed; also called His-tagged recombinant Hbδ; source: bought: Origene
For B1, the binding result is “binds”.
